Data: the supplement of paper PMC11780869

Test system: Bacillus subtilis
Assay: cleaved RNA product abundance (RNA/gDNA barcode ratio) relative to median wild-type variant (ratio to wild type); higher = more accumulation of the downstream cleavage product
Conditions: experiment (reporter, strain, medium): exp 8a: truncated aprE reporter, strain BJT201 with 2% xylose (RNase J1 expressed); cleavage site: glnRA (positions -5 to +31 mutated)
In short: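 Reporter mRNAs based on truncated aprE or tetM carried barcoded, mutagenized RNase Y cleavage-site windows built from oligos with a 9% error rate and were integrated into the B. subtilis chromosome. Cultures grew in LB at 37°C from OD600 0.0003 to 0.3. Cleaved RNA was gel-selected, reverse transcribed and barcode-sequenced together with genomic DNA barcodes, and UMIs were collapsed. Cleaved product abundance is the per-construct ratio of RNA to gDNA barcodes, scaled to the median of constructs carrying the unmutated site.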

## CGACATGTCCCGCTTCTTTCATTAATTCGTTAGCAACTGCTTTGCTATATACATTTACCTTTTAAGAGGAGGAAT
  cleaved RNA product abundance: 0.6

## CGACATGTCCCGCTTCTTTCATTAATTCGTTAGCAACTGTATTGCAATATACATTTACCTTTTAAGAGGAGGAAT
  cleaved RNA product abundance: 0.329

## CGACATGTCCCGCTTCTTTCATTAATTCGTTAGCAACTGTCTTGCTATATACATTTACCTTTTAAGAGGAGGAAT
  cleaved RNA product abundance: 0.981

## CGACATGTCCCGCTTCTTTCATTAATTCGTTAGCAACTGTTATGCTATATACATTTACCTTTTAAGAGGAGGAAT
  cleaved RNA product abundance: 1.05

## CGACATGTCCCGCTTCTTTCATTAATTCGTTAGCAACTGTTTAGCTATATACATTTACCTTTTAAGAGGAGGAAT
  cleaved RNA product abundance: 0.488

## CGACATGTCCCGCTTCTTTCATTAATTCGTTAGCAACTGTTTTACTATATACATTTACCTTTTAAGAGGAGGAAT
  cleaved RNA product abundance: 0.749

## CGACATGTCCCGCTTCTTTCATTAATTCGTTAGCAACTGTTTTCCTATATACATTTACCTTTTAAGAGGAGGAAT
  cleaved RNA product abundance: 0.485

## CGACATGTCCCGCTTCTTTCATTAATTCGTTAGCAACTGTTTTGATATATACATTTACCTTTTAAGAGGAGGAAT
  cleaved RNA product abundance: 0.498

## CGACATGTCCCGCTTCTTTCATTAATTCGTTAGCAACTGTTTTGCCATATACATTTACCTTTTAAGAGGAGGAAT
  cleaved RNA product abundance: 0.237

## CGACATGTCCCGCTTCTTTCATTAATTCGTTAGCAACTGTTTTGCTAAATACATTTACCTTTTAAGAGGAGGAAT
  cleaved RNA product abundance: 0.362

## CGACATGTCCCGCTTCTTTCATTAATTCGTTAGCAACTGTTTTGCTATACACATTTACCTTTTAAGAGGAGGAAT
  cleaved RNA product abundance: 0.585

## CGACATGTCCCGCTTCTTTCATTAATTCGTTAGCAACTGTTTTGCTATATAAATTTACCTTTTAAGAGGAGGAAT
  cleaved RNA product abundance: 1.12

## CGACATGTCCCGCTTCTTTCATTAATTCGTTAGCAACTGTTTTGCTATATACAATTACCTTTTAAGAGGAGGAAT
  cleaved RNA product abundance: 1.18

## CGACATGTCCCGCTTCTTTCATTAATTCGTTAGCAACTGTTTTGCTATATACACTTACCTTTTAAGAGGAGGAAT
  cleaved RNA product abundance: 0.629

## CGACATGTCCCGCTTCTTTCATTAATTCGTTAGCAACTGTTTTGCTATATACATATACCTTTTAAGAGGAGGAAT
  cleaved RNA product abundance: 0.859

## CGACATGTCCCGCTTCTTTCATTAATTCGTTAGCAACTGTTTTGCTATATACATGTACCTTTTAAGAGGAGGAAT
  cleaved RNA product abundance: 0.933

## CGACATGTCCCGCTTCTTTCATTAATTCGTTAGCAACTGTTTTGCTATATACATTTAACTTTTAAGAGGAGGAAT
  cleaved RNA product abundance: 1.68

## CGACATGTCCCGCTTCTTTCATTAATTCGTTAGCAACTGTTTTGCTATATACATTTACCATTTAAGAGGAGGAAT
  cleaved RNA product abundance: 1.22

## CGACATGTCCCGCTTCTTTCATTAATTCGTTAGCAACTGTTTTGCTATATACATTTACCCTTTAAGAGGAGGAAT
  cleaved RNA product abundance: 0.564

## CGACATGTCCCGCTTCTTTCATTAATTCGTTAGCAACTGTTTTGCTATATACATTTACCGTTTAAGAGGAGGAAT
  cleaved RNA product abundance: 0.591

## CGACATGTCCCGCTTCTTTCATTAATTCGTTAGCAACTGTTTTGCTATATACATTTACCTTTTAAGAGGAGGAAT
  cleaved RNA product abundance: 1.11

## CGACATGTCCCGCTTCTTTCATTAATTCGTTAGCAACTGTTTTGCTATATACATTTACGTTTTAAGAGGAGGAAT
  cleaved RNA product abundance: 0.881

## CGACATGTCCCGCTTCTTTCATTAATTCGTTAGCAACTGTTTTGCTATATACATTTAGCTTTTAAGAGGAGGAAT
  cleaved RNA product abundance: 1.88

## CGACATGTCCCGCTTCTTTCATTAATTCGTTAGCAACTGTTTTGCTATATACATTTATCTTTTAAGAGGAGGAAT
  cleaved RNA product abundance: 1.4

## CGACATGTCCCGCTTCTTTCATTAATTCGTTAGCAACTGTTTTGCTATATACATTTGCCTTTTAAGAGGAGGAAT
  cleaved RNA product abundance: 0.536

## CGACATGTCCCGCTTCTTTCATTAATTCGTTAGCAACTGTTTTGCTATATATATTTACCTTTTAAGAGGAGGAAT
  cleaved RNA product abundance: 1.55

## CGACATGTCCCGCTTCTTTCATTAATTCGTTAGCAACTGTTTTGCTATATTCATTTACCTTTTAAGAGGAGGAAT
  cleaved RNA product abundance: 0.627

## CGACATGTCCCGCTTCTTTCATTAATTCGTTAGCAACTGTTTTGCTATCTACATTTACCTTTTAAGAGGAGGAAT
  cleaved RNA product abundance: 0.0856

## CGACATGTCCCGCTTCTTTCATTAATTCGTTAGCAACTGTTTTGCTATTTACATTTACCTTTTAAGAGGAGGAAT
  cleaved RNA product abundance: 0.134

## CGACATGTCCCGCTTCTTTCATTAATTCGTTAGCAACTGTTTTGTTATATACATTTACCTTTTAAGAGGAGGAAT
  cleaved RNA product abundance: 0.602

## CGACATGTCCCGCTTCTTTCATTAATTCGTTAGCAATTGTTTTGCTATATACATTTACCTTTTAAGAGGAGGAAT
  cleaved RNA product abundance: 1.67

## CGACATGTCCCGCTTCTTTCATTAATTCGTTAGCACCTGTTTTGCTATATACATTTACCTTTTAAGAGGAGGAAT
  cleaved RNA product abundance: 0.658

## CGACATGTCCCGCTTCTTTCATTAATTCGTTAGTAACTGTTTTGCTATATACATTTACCTTTTAAGAGGAGGAAT
  cleaved RNA product abundance: 0.445

## CGACATGTCCCGCTTCTTTCATTAATTCGTTATCAACTGTTTTGCTATATACATTTACCTTTTAAGAGGAGGAAT
  cleaved RNA product abundance: 0.31

## CGACATGTCCCGCTTCTTTCATTAATTCGTTGGCAACTGTTTTGCTATATACATTTACCTTTTAAGAGGAGGAAT
  cleaved RNA product abundance: 0.687

## CGACATGTCCCGCTTCTTTCATTAATTCGTTTGCAACTGTTTTGCTATATACATTTACCTTTTAAGAGGAGGAAT
  cleaved RNA product abundance: 0.815

## CGACATGTCCCGCTTCTTTCATTAATTTGTTAGCAACTGTTTTGCTATATACATTTACCTTTTAAGAGGAGGAAT
  cleaved RNA product abundance: 1.37

## CGACATGTCCCGCTTCTTTCATTACACCGTTAGCAACTGTTTTGCTATATACATTTACCTTTTAAGAGGAGGAAT
  cleaved RNA product abundance: 1.39

## CGACATGTCCCGCTTCTTTCATTACGCCGTTAGCAACTGTTTTGCTATATACATTTACCTTTTAAGAGGAGGAAT
  cleaved RNA product abundance: 1.03

## CGACATGTCCCGCTTCTTTCATTACTACCTTAGCAACTGTTTTGCTATATACATTTACCTTTTAAGAGGAGGAAT
  cleaved RNA product abundance: 0.4

## CGACATGTCCCGCTTCTTTCATTACTACGTTAGCAACTGTTTTGCTATATACATTTACCTTTTAAGAGGAGGAAT
  cleaved RNA product abundance: 2.07

## CGACATGTCCCGCTTCTTTCATTACTACGTTAGCAACTGTTTTGCTATATATATTTACCTTTTAAGAGGAGGAAT
  cleaved RNA product abundance: 1.18

## CGACATGTCCCGCTTCTTTCATTACTCAGTTAGCAACTGTTTTGCTATATACATTTACCTTTTAAGAGGAGGAAT
  cleaved RNA product abundance: 1.1

## CGACATGTCCCGCTTCTTTCATTACTCCATTAGCAACTGTTTTGCTATATACATTTACCATTTAAGAGGAGGAAT
  cleaved RNA product abundance: 1.11

## CGACATGTCCCGCTTCTTTCATTACTCCATTAGCAACTGTTTTGCTATATACATTTACCTTTTAAGAGGAGGAAT
  cleaved RNA product abundance: 1.18

## CGACATGTCCCGCTTCTTTCATTACTCCCCTAGCAACTGTTTGGCTATATATATTTACCTTTTAAGAGGAGGAAT
  cleaved RNA product abundance: 0.221

## CGACATGTCCCGCTTCTTTCATTACTCCCTTAGCAACTGTTTTGCTATATACATTTACCTTTTAAGAGGAGGAAT
  cleaved RNA product abundance: 0.223

## CGACATGTCCCGCTTCTTTCATTACTCCGTCAGCAACTGTTTTGCTATATACATTTACCTTTTAAGAGGAGGAAT
  cleaved RNA product abundance: 0.381

## CGACATGTCCCGCTTCTTTCATTACTCCGTTAACAACTGTTTTGCTATATACATTTACCTTTTAAGAGGAGGAAT
  cleaved RNA product abundance: 0.261

## CGACATGTCCCGCTTCTTTCATTACTCCGTTACCAACTGTTTTGCTATATACATTTACCTTTTAAGAGGAGGAAT
  cleaved RNA product abundance: 0.176
